Experiment in all cases: cell_activity; T cells, mostly above 70%
Holding throughout (conditions): tags: SV40 NLS; FokI fusion

In one series the target is T1, CISH (3) right V2 TALEN (synthetic, UniProt Q56830 SEQ:15-719).
T1 chain: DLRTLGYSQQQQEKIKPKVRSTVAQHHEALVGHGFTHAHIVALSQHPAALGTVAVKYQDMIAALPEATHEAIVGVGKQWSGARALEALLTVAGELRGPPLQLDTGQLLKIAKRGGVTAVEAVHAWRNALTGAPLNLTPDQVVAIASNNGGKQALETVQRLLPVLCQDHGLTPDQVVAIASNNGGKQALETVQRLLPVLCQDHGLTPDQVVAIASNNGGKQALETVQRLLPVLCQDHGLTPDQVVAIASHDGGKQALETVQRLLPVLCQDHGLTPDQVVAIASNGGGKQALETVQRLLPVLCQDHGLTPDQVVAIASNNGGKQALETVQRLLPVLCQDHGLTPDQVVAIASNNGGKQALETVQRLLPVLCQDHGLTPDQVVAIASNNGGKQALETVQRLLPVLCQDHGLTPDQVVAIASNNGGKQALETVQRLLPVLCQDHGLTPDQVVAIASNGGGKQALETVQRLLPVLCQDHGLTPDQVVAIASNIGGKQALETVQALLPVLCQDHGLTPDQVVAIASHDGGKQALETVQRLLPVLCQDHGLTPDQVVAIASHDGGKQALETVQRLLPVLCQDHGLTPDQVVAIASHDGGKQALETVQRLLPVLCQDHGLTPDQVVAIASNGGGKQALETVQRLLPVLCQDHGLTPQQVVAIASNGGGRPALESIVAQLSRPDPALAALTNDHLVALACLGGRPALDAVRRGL

A further series concerns the target T2, IgH (1) left V2 TALEN (synthetic, UniProt Q56830 SEQ:15-719).
T2 chain: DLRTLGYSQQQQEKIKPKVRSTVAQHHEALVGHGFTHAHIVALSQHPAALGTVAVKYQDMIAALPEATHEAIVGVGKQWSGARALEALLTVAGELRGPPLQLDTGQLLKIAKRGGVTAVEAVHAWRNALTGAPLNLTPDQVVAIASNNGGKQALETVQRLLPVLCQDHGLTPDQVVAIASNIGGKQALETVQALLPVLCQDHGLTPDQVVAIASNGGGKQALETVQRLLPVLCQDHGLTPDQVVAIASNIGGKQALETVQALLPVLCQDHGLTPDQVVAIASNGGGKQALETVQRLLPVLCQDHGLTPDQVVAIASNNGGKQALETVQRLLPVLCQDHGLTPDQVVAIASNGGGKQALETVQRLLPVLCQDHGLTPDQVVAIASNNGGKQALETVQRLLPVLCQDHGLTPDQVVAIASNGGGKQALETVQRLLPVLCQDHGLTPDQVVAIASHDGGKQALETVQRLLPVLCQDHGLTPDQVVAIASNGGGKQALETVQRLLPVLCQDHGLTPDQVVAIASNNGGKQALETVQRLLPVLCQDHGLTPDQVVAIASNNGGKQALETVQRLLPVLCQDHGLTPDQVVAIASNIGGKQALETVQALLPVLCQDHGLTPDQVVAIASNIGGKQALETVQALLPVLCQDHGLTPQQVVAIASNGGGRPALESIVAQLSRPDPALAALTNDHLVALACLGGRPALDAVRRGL

The target of a further series is T3, CD38 (1) left V2 TALEN (synthetic, UniProt Q56830 SEQ:15-719).
T3 chain: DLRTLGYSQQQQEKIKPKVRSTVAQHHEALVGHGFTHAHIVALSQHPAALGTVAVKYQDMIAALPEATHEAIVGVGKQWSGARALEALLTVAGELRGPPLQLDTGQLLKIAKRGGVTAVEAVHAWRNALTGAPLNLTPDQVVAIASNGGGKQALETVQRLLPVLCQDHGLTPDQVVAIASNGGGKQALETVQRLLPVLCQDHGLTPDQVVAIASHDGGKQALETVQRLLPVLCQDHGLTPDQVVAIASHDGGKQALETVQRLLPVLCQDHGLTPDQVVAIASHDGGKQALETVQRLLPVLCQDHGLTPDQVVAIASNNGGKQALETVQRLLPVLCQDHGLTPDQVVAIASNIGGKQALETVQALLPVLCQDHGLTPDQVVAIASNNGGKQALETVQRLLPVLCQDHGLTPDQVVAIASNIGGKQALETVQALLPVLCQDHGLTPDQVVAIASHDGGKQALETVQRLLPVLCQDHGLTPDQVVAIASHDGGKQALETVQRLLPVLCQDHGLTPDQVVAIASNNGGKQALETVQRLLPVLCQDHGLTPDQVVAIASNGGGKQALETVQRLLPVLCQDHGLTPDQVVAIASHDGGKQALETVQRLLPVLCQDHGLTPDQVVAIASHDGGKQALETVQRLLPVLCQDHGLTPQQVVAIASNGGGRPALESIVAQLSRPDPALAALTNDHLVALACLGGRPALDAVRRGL

The target of the next series is T4, IgH (1) right V2 TALEN (synthetic, UniProt Q56830 SEQ:15-719).
T4 chain: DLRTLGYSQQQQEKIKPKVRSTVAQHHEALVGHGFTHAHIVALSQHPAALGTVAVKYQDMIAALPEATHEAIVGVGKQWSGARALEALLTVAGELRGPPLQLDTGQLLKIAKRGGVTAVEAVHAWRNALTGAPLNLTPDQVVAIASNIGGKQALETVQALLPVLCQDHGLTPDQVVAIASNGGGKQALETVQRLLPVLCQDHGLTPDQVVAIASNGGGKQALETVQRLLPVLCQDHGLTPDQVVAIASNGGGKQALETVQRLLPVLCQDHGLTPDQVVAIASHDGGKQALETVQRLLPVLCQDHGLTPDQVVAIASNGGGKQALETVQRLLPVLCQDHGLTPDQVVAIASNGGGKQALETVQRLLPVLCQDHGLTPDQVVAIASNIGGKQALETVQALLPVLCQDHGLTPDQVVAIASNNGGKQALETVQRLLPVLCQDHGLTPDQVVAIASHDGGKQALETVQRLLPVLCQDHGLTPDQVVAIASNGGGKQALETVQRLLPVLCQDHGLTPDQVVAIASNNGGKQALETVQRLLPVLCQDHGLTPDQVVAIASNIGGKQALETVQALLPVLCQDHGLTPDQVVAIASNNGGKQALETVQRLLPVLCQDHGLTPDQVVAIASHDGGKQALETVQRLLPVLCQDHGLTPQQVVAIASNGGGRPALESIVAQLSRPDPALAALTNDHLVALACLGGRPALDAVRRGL

The next series deals with T5, CD38 (1) right V2 TALEN (synthetic, UniProt Q56830 SEQ:15-719).
T5 chain: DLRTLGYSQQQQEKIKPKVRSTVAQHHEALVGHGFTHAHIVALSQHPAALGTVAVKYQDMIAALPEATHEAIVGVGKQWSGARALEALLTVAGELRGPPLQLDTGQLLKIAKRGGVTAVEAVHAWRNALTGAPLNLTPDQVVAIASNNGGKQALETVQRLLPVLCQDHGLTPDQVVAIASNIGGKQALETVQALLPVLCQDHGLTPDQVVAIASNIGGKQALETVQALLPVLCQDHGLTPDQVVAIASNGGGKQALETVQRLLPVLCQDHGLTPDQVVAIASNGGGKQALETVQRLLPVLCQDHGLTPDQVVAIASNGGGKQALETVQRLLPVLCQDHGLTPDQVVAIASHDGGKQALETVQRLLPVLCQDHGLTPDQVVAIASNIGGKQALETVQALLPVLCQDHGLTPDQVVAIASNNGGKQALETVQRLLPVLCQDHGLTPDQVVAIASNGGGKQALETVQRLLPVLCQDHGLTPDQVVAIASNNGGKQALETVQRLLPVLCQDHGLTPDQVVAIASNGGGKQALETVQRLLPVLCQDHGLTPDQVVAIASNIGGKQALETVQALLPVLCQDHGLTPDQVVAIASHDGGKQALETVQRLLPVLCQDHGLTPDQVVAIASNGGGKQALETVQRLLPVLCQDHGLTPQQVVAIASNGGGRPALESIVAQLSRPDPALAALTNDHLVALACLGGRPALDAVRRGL

The target in the next series is T6, CD38 (2) right V2 TALEN (synthetic, UniProt Q56830 SEQ:15-719).
T6 chain: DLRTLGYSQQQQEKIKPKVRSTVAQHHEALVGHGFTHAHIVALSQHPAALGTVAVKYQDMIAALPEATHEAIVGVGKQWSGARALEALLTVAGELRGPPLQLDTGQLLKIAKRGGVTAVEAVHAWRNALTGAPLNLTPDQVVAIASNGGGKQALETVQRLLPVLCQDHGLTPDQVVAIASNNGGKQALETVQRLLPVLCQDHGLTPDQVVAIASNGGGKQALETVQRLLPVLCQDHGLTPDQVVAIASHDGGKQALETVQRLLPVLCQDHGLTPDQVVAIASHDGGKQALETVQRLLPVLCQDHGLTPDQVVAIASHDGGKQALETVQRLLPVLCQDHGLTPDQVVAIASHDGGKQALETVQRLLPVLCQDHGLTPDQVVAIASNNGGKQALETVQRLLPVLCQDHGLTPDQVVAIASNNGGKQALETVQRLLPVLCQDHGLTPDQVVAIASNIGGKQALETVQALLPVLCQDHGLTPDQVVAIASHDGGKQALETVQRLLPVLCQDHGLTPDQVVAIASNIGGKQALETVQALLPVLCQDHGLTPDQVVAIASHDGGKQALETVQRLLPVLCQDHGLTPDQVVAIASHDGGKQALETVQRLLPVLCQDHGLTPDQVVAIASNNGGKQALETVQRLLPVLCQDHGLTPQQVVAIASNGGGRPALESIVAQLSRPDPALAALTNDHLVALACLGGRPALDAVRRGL

For the next series, the target named is T7, CD38 (2) left V2 TALEN (synthetic, UniProt Q56830 SEQ:15-719).
T7 chain: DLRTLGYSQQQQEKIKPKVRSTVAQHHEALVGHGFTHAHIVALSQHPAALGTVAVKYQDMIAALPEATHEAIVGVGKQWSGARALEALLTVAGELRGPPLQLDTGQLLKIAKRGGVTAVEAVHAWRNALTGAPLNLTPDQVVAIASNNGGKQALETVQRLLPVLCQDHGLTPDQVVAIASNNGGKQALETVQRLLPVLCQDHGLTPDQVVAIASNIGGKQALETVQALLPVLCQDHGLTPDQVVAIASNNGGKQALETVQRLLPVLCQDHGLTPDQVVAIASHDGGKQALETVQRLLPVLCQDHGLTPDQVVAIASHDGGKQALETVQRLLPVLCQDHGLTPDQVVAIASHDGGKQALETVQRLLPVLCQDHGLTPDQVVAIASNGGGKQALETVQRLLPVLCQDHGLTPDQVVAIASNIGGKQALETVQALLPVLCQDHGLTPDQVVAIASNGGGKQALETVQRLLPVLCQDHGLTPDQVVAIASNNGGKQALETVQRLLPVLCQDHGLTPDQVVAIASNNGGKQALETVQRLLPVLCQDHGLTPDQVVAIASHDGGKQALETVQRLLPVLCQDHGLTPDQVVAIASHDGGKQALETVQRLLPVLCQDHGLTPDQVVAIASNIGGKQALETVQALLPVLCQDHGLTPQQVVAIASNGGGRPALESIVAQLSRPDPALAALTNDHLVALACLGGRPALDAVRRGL

B1: CISH (3) right half-site (dsDNA)
DNA 1: GAGGGTACCCCAGCCCA
DNA 2: TGGGCTGGGGTACCCTC
Regarding B1, the activity with CISH (3) right V2 TALEN was more than 50 % indels.

B2: IgH (1) left half-site (dsDNA)
DNA 1: TGATATGTGTCTGGAAT
DNA 2: ATTCCAGACACATATCA
For the molecule B2, the activity with IgH (1) left V2 TALEN was more than 50 % indels.

B3: CD38 (1) left half-site (dsDNA)
DNA 1: TTTCCCGAGACCGTCCT
DNA 2: AGGACGGTCTCGGGAAA
B3 returned an activity in the series with CD38 (1) left V2 TALEN of more than 50 % indels.

B4: IgH (1) right half-site (dsDNA)
DNA 1: AGCTCAGCTAAGAAATA
DNA 2: TATTTCTTAGCTGAGCT
In turn, B4 displayed an activity with IgH (1) right V2 TALEN of more than 50 % indels.

B5: CD38 (1) right half-site (dsDNA)
DNA 1: AAGTACACTGAAATTCA
DNA 2: TGAATTTCAGTGTACTT
As to B5, the activity in the series with CD38 (1) right V2 TALEN was more than 50 % indels.

B6: CD38 (2) right half-site (dsDNA)
DNA 1: CCGGTGTCCGGGGACAA
DNA 2: TTGTCCCCGGACACCGG
Take B6: the activity in the series with CD38 (2) right V2 TALEN was more than 50 % indels.

B7: CD38 (2) left half-site (dsDNA)
DNA 1: TGGAGCCCTATGGCCAA
DNA 2: TTGGCCATAGGGCTCCA
Molecule B7 yielded an activity with CD38 (2) left V2 TALEN of more than 50 % indels.
